Source: patent US20170298425

Experiments:
Experiment in all cases: cell_activity
[1] = biological target: TcI38 (bacteriophage lambda) (UniProt P03034); conditions: GFP derepression fold change 32.4 to 40 C, E. coli; SEM 160
[2] = biological target: TcI42 (bacteriophage lambda) (UniProt P03034); conditions: GFP derepression fold change 32.4 to 45.7 C, E. coli; SEM 444
[3] = biological target: TcI (cI857, A67T) (bacteriophage lambda) (UniProt P03034); conditions: GFP derepression fold change 34.2 to 40 C, E. coli; SEM 404; text gives >1432
[4] = system: TlpA39 (Salmonella enterica); conditions: GFP derepression fold change 31.4 to 44.6 C, E. coli; SEM 434
[5] = system: TlpA (in cell) (Salmonella enterica); conditions: GFP derepression fold change 31.4 to 44.6 C, E. coli; SEM 45
[6] = system: TlpA36 (Salmonella enterica); conditions: GFP derepression fold change 31.4 to 44.6 C, E. coli; SEM 63

Row | Substance | activity [1] [fold] | activity [2] [fold] | activity [3] [fold] | activity [4] [fold] | activity [5] [fold] | activity [6] [fold]
1 | lambda tandem pR/pL operator/promoter | 1030 | 1690 | 1430 |  |  | 
2 | pTlpA operator/promoter, 52 bp |  |  |  | 1520 | 355 | 370
